Assay results reported in IntAct's records for PubMed 18728196.

B1: Anti-sigma factor RshA (Mycobacterium tuberculosis (strain ATCC 25618 / P9WJ69 (parent)
chain: MSENCGPTDAHADHDDSHGGMGCAEVIAEVWTLLDGECTPETRERLRRHLEACPGCLRHYGLEERIKALIGTKCRGDRAPEGLRERLRLEIRRTTIIRGGP

Variants of: B1
Conditions: with pstp_myctu pstP

Variant	effect of a mutation on the interaction
MSENCGPTDAHADHDDSHGGMGCAEVIAEVWTLLDGECTPETRERLRRHLEACPGCLRHYGLEERIKALIGTKCRGDRAPEGLRERLRLEIRRATIIRGGP [T94A]	disrupting interaction
